Measured values from the supplement of paper PMC10567573.

B1: KCNA3 (parent)
chain: YQSGGRIRRPVNVPIDIFSEEIRF
B2: HDAC6 (parent)
chain: DLMETTQYMNEGELRVLADTYDSV

Variants of: B1
Assay: protein stability index of a GFP-peptide fusion (GPS, HEK-293T) (PSI 1-6); higher = more stable
Conditions: c terminus: a fixed tail appended
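Further: lentivirally expressed fusions sorted by FACS into six bins by GFP to DsRed ratio, PSI derived from sequencing read proportions per bin multiplied by bin number.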

Protein stability index of substitutions, site by site:
R6: K 1.59; G 1.85; Q 2.79; V 1.95; N 2.11; E 2.34; A 1.9; F 1.65; Y 1.86; C 1.85; H 2.23; P 1.91; W 1.86; T 1.76; S 2.08; L 1.31; I 1.9; D 2.15
G5: Q 2.5; V 2.05; N 2; Y 1.49; K 2.2; L 2.09; R 2.08; T 2.54; I 1.94; F 1.68; M 1.37; S 2.37; W 3.41; C 1.91; H 2.9; P 2.32; D 2.02; A 2.38; E 2.58
N12: S 2.63; R 1.28; C 2.62; A 1.8; W 2.21; G 1.83; L 1.4; F 1.35; I 1.93; Q 2.34; T 2.17; P 2.11; K 1.91; H 3.14; E 1.8; M 2.26; Y 1.08; D 1.8; V 1.41
V11: N 2.42; T 1.98; C 2.39; L 1.44; I 1.7; P 1.83; K 1.85; F 2.02; S 1.74; H 1.66; R 2.37; E 3.13; A 2.49; Y 2.18; G 1.79; M 2.01; Q 2.03; D 1.69
Q2: M 2.04; T 2.47; P 2.07; C 2.19; W 1.87; R 2.07; V 1.94; L 2.41; S 1.96; I 1.22; F 1.79; G 2.7; D 2.74; N 2.52; Y 2.46; H 3.93; E 2.33; A 2.35; K 1.92
S3: A 2.82; E 2.93; Q 2.44; K 2.24; Y 2.21; I 1.58; G 1.81; N 2.23; T 2.06; L 2.23; P 2.22; H 2.84; C 1.46; M 1.56; F 1.64; R 2.59; V 2.01; W 2.27; D 2.41
R8: F 2.03; I 3.3; E 2.3; Y 3.3; L 1.26; K 2.47; D 2.13; H 4.19; Q 1.67; T 2.07; A 2.57; V 1.77; M 2.03; S 1.44; N 2.2; C 2.03; P 2.02
Y1: Q 2.76; N 2.89; G 2.83; C 2.49; R 2.67; T 2.55; W 2.48; I 2.53; L 2.08; D 3.1; A 3.31; K 2.77; M 2.42; V 2.58; H 2.98; E 2.74; P 3.43; S 3.58; F 1.83
P10: L 1.6; W 2.7; S 2.43; Q 1.53; I 1.78; R 1.64; F 1.39; D 1.87; E 2.02; C 2.03; N 1.64; A 2.31; K 1.33; G 2.48; V 1.91; Y 1.76; T 2.83; M 1.62
V13: K 2.36; E 2.14; N 2.13; H 2.19; R 2.01; C 1.78; L 1.95; M 2.25; G 2.31; Y 1.69; S 2.11; D 2.14; A 1.88; P 1.86; I 2.43; Q 2.42; F 1.86; W 2.01; T 1.82
I7: F 1.62; S 2.38; W 2.77; K 3.34; P 2.51; M 2.44; A 2.83; E 2.17; R 1.86; Q 2.52; L 1.69; Y 2.04; T 1.91; N 1.73; D 2.92; H 1.57; V 2.4; C 2.38; G 2.41
P14: D 1.85; G 1.9; E 1.43; F 1.07; I 2.88; C 1.33; H 2.02; A 1.81
R9: F 1.81; K 1.78; G 2.23; N 2.12; A 2.45; H 3.44; C 2.35; Q 1.87; D 1.62; E 2.26; M 1.61; T 2.48; P 2.26; V 1.41; I 2.27; Y 1.72; S 2.06; L 2.05
G4: S 3.01; C 1.93; W 2; H 1.97; P 2.21; D 2.07; Y 1.79; T 2.28; F 1.83; V 2.05; M 2.1; L 2.31; K 2.82; N 1.92; I 2.06; R 2.15; E 2.73; A 1.69; Q 2.37

Variants of: B2
Assay: as above
Conditions: c terminus: a fixed tail appended

Protein stability index: each site, then its substitutions
Y21: F 2.24; A 2.69; L 1.96; D 3.31; M 1.44; W 2; S 2.26; P 2.04; H 1.72; C 2.2; I 1.79; G 2.66; N 1.61; Q 3.21; T 3.1; K 2.74
T20: I 2.91; M 1.62; L 1.04; Y 2.06; R 3.07; N 2.21; D 2.83; H 2.71; K 1.96; Q 2.58; A 2.49; F 2.27; W 1.77; P 1.99; S 2.13; E 2.41
S23: G 2.72; W 3.46; M 2.33; K 2.03; N 2.66; R 2.14; I 1.86; T 2.05; D 1.92; P 1.46; C 2.48; E 1.97; H 2.37; V 1.63; L 1.94; Q 1.24; Y 1.58
V24: L 2.11; A 1.73; W 1.66; R 1.86; H 2.78; E 2.01; S 1.56; K 1.77; T 1.63; G 2.1; M 2.24; N 2.77; I 2.34; Q 1.84; D 2.41; P 2.11; C 1.42; F 1.92; Y 1.49
D22: V 1.74; T 1.65; F 1; Y 2.7; P 1.92; I 2.16; K 1.75; E 1.57; G 1.76; S 1.55; R 2.91; A 1.27; Q 2.29; C 2.18; L 2.14; N 1.48; H 2
